The values below come from PMC3117669 (The Biochemical journal, 2010).

Series [1] deals with T1, V5-lipin 1b (469-924), immunopurified (mouse, UniProt Q91ZP3 469-924).
T1 sequence (looked up): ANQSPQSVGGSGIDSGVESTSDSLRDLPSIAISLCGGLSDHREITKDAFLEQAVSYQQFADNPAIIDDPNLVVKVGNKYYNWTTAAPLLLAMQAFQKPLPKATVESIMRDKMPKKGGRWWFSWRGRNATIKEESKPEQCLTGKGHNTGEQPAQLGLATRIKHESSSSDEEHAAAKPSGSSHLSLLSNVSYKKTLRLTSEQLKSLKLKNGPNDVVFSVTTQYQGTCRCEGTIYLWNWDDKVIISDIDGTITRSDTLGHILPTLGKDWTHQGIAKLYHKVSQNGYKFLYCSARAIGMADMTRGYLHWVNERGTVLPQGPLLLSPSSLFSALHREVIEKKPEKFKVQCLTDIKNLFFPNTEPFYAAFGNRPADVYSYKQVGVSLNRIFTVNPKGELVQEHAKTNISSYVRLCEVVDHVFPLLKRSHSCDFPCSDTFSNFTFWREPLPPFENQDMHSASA
Nature of the series: pull-down.

In series [2] the target is T2, GST-lipin 1b (1-641) (mouse, UniProt Q91ZP3 1-641).
T2 sequence (looked up): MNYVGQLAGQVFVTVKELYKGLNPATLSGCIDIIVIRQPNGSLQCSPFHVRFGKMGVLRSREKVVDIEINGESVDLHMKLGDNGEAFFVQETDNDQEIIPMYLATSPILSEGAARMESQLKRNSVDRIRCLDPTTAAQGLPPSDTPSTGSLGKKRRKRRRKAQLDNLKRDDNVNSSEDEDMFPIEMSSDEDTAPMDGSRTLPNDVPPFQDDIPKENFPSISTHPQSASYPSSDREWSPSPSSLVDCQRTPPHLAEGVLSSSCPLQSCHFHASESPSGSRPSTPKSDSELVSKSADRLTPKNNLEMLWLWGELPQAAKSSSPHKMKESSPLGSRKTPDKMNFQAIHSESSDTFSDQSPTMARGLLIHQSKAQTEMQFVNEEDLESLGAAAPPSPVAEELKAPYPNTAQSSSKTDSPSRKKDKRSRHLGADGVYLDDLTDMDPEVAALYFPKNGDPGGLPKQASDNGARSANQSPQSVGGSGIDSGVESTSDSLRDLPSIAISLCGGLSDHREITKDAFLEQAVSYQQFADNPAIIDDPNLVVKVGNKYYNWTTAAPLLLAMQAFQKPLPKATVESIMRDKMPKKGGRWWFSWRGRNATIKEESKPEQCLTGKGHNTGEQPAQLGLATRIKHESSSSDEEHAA
Description: pull-down.

Series [3] deals with the molecule itself. Description: native gel or EMSA. In general terms: A gel shift assay detects complexes by their altered migration in electrophoresis.

In general, stoichiometry N refers to the number of molecules, sites or subunits per partner or assembly.

“And” between values parts separate entries of the source, which are not always exact repeats. Equal entries are not always repeated.

B1: GST-lipin 1b (642-924) (domain or fragment, mouse, UniProt Q91ZP3 642-924, looked up)
chain: AKPSGSSHLSLLSNVSYKKTLRLTSEQLKSLKLKNGPNDVVFSVTTQYQGTCRCEGTIYLWNWDDKVIISDIDGTITRSDTLGHILPTLGKDWTHQGIAKLYHKVSQNGYKFLYCSARAIGMADMTRGYLHWVNERGTVLPQGPLLLSPSSLFSALHREVIEKKPEKFKVQCLTDIKNLFFPNTEPFYAAFGNRPADVYSYKQVGVSLNRIFTVNPKGELVQEHAKTNISSYVRLCEVVDHVFPLLKRSHSCDFPCSDTFSNFTFWREPLPPFENQDMHSASA
As for B1, the binding result in series [1] is “binds”.

B2: V5-lipin 1b (1-171), immunopurified (domain or fragment, mouse, UniProt Q91ZP3 1-171, looked up)
chain: MNYVGQLAGQVFVTVKELYKGLNPATLSGCIDIIVIRQPNGSLQCSPFHVRFGKMGVLRSREKVVDIEINGESVDLHMKLGDNGEAFFVQETDNDQEIIPMYLATSPILSEGAARMESQLKRNSVDRIRCLDPTTAAQGLPPSDTPSTGSLGKKRRKRRRKAQLDNLKRDD
As for B2, the binding result in series [2] is on record as “binds”.

B3: lipin 1b-V5 (HEK293A) (natural protein, mouse, UniProt Q91ZP3 1-924, looked up)
chain: MNYVGQLAGQVFVTVKELYKGLNPATLSGCIDIIVIRQPNGSLQCSPFHVRFGKMGVLRSREKVVDIEINGESVDLHMKLGDNGEAFFVQETDNDQEIIPMYLATSPILSEGAARMESQLKRNSVDRIRCLDPTTAAQGLPPSDTPSTGSLGKKRRKRRRKAQLDNLKRDDNVNSSEDEDMFPIEMSSDEDTAPMDGSRTLPNDVPPFQDDIPKENFPSISTHPQSASYPSSDREWSPSPSSLVDCQRTPPHLAEGVLSSSCPLQSCHFHASESPSGSRPSTPKSDSELVSKSADRLTPKNNLEMLWLWGELPQAAKSSSPHKMKESSPLGSRKTPDKMNFQAIHSESSDTFSDQSPTMARGLLIHQSKAQTEMQFVNEEDLESLGAAAPPSPVAEELKAPYPNTAQSSSKTDSPSRKKDKRSRHLGADGVYLDDLTDMDPEVAALYFPKNGDPGGLPKQASDNGARSANQSPQSVGGSGIDSGVESTSDSLRDLPSIAISLCGGLSDHREITKDAFLEQAVSYQQFADNPAIIDDPNLVVKVGNKYYNWTTAAPLLLAMQAFQKPLPKATVESIMRDKMPKKGGRWWFSWRGRNATIKEESKPEQCLTGKGHNTGEQPAQLGLATRIKHESSSSDEEHAAAKPSGSSHLSLLSNVSYKKTLRLTSEQLKSLKLKNGPNDVVFSVTTQYQGTCRCEGTIYLWNWDDKVIISDIDGTITRSDTLGHILPTLGKDWTHQGIAKLYHKVSQNGYKFLYCSARAIGMADMTRGYLHWVNERGTVLPQGPLLLSPSSLFSALHREVIEKKPEKFKVQCLTDIKNLFFPNTEPFYAAFGNRPADVYSYKQVGVSLNRIFTVNPKGELVQEHAKTNISSYVRLCEVVDHVFPLLKRSHSCDFPCSDTFSNFTFWREPLPPFENQDMHSASA
With B3, the “stoichiometry N” value in series [3] is 2 and 4.
